Consider 49 molecules from patent US20170165337A1 (IMMATICS BIOTECHNOLOGIES, published 2017).

The target in this assay is T1, HLA-A*02:01 (human).
T1 construct: MHC class I monomer of the UV-ligand exchange assay; also called peptide-receptive MHC molecules; MHC class I
The experiment in a line: UV peptide-exchange ELISA. An outline of the steps: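 Peptide-MHC complexes formed by UV-mediated exchange of a UV-cleavable peptide for the test peptide; exchange yield quantified by β2m ELISA. Diluted 100-fold, captured on streptavidin-coated plates 1 h at 37 °C, detected with HRP anti-β2m and TMB at 450 nm against refolded HLA-A*02:01 monomer standards (15-500 ng/ml).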
In general terms: An ELISA detects its analyte on a solid surface through an enzyme-linked reagent.
Molecule VMILKLPFL yielded a peptide exchange yield of 20 to 50%.
Molecule AVLQAVTAV showed a peptide exchange yield of 50 to 75%.
With LLVDVEPKV the figure was 50 to 75%.
With VVAEELENV, the peptide exchange yield lay within 20 to 50%.
Under FIAPTGHSL stands 20 to 50%.
With LLLTKPTEA the figure was 50 to 75%; with SLYDVSRMYV, no less than 75%.
Under LMKDCEAEV stands 50 to 75%; under VLDELPPLI, 50 to 75%.
VLLFIEHSV had a peptide exchange yield of 50 to 75%.
In turn, VLLEYHIAYL returned a peptide exchange yield of 50 to 75%.
Under YLDDLLPKL stands 50 to 75%; under AVLGLVWLL, 50 to 75%; under AAALIIHHV, 50 to 75%.
VLGEYSYLL came in with a peptide exchange yield of 50 to 75%.
For the molecule ILYGTQFVL, the peptide exchange yield fell in the range of 50 to 75%.
With LLSTLHLLV the figure was 50 to 75%.
For ALDIMIPMV, the peptide exchange yield is 50 to 75%.
Under AVLHLLLSV stands 20 to 50%.
Molecule FLWEEKFNSL displayed a peptide exchange yield of no less than 75%.
Under GLAESTGLLAV stands 50 to 75%.
With LLRDGIELV, the peptide exchange yield is 50 to 75%.
With ILQPMDIHV the figure was 50 to 75%; with ALLQKLQQL, 50 to 75%; with LLFPQIEGIKI, 50 to 75%.
Under IILPVEVEV stands 50 to 75%.
Under FLLEDLSQKL stands 50 to 75%; under GVATAGCVNEV, no less than 75%.
YMAPEVVEA came in with a peptide exchange yield of 50 to 75%.
With VLNDGAPNV the figure was 50 to 75%.
Under LLSAAEPVPA stands 20 to 50%; under ALLDQLHTLL, no less than 75%; under ELLEGSEIYL, 50 to 75%.
For ILQDLTFVHL, the peptide exchange yield lay in the range of 50 to 75%.
For the molecule LVYEAPETV, the peptide exchange yield lay within 50 to 75%.
AASPIITLV had a peptide exchange yield of 50 to 75%.
With VIRNIVEAA the figure was 20 to 50%.
Under YTLDSLYWSV stands 50 to 75%; under VIAELPPKV, 20 to 50%.
With FLVEPQEDTRL the figure was 50 to 75%; with LMADLEGLHL, 50 to 75%; with ILLNPAYDVYL, 50 to 75%.
In turn, ILEENIPVL had a peptide exchange yield of 50 to 75%.
Under NLLDDRGMTAL stands 50 to 75%; under ILEEQPMDMLL, 50 to 75%; under LAIVPVNTL, 10 to 20%.
In the case of ILLNEDDLVTI, the peptide exchange yield fell in the range of 50 to 75%.
Under LLYNSTDPTL stands 50 to 75%.
Under ILSQPTPSL stands 50 to 75%.
